These are literature values, as cited in PMC11299584.

What is called pKd is the negative decadic logarithm of the Kd, by convention in mol/L.

pKd: −log10 of the molar value.

The target of the series is ANGPTL3/8 complex (Homo sapiens) (UniProt Q9Y5C1). The series can be described thus: SPR.
Sequence of UniProt Q9Y5C1 (Q9Y5C1 17-460, chain 1 of 2): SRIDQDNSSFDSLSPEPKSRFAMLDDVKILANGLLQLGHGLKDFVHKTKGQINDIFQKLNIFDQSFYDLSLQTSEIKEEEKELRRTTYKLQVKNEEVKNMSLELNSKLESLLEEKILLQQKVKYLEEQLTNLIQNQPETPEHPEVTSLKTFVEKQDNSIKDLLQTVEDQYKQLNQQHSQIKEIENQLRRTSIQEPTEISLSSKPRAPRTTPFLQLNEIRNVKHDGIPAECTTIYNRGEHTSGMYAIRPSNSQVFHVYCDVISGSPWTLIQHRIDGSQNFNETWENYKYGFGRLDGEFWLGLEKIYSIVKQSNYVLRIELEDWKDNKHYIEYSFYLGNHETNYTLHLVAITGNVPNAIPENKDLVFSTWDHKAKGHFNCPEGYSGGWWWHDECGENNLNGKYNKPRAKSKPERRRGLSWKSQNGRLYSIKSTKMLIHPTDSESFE
Sequence of UniProt Q9Y5C1 (Q6UXH0 22-198, chain 2 of 2, further chain): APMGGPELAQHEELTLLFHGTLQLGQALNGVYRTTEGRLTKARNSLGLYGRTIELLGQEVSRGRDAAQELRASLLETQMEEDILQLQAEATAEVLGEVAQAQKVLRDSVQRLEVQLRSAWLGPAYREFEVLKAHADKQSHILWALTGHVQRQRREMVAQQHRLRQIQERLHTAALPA

Regarding APOA5 (from UniProt Q8C7G5), the pKd was 9.28.
